The source of these data is US20190040375A1.

For experiment [1], the target named is gliadin-subtilisin A digest (mixed gliadins, 250 ug/ml, incubated with subtilisin A, 57 ug/ml). The experiment in a line: G12 sandwich ELISA; gliadins 250 ug/ml with subtilisin A 57 ug/ml, t=0 sample. On the technique in general: ELISA stands for enzyme-linked immunosorbent assay.
Experiment [2] has as its target gliadin-Rmep digest (mixed gliadins, 250 ug/ml, incubated with Rmep, 57 ug/ml). The experiment in a line: G12 sandwich ELISA; gliadins 250 ug/ml with Rmep 57 ug/ml, 30 min.
The target of experiment [3] is gliadin-subtilisin A digest (mixed gliadins, 250 ug/ml, incubated with subtilisin A, 57 ug/ml). Kind of experiment: G12 sandwich ELISA; gliadins 250 ug/ml with subtilisin A 57 ug/ml, 2 h.
For experiment [4], the target named is gliadin-Rmep digest (mixed gliadins, 250 ug/ml, incubated with Rmep, 57 ug/ml). The experiment in a line: G12 sandwich ELISA; gliadins 250 ug/ml with Rmep 57 ug/ml, 2 h.
In experiment [5] the target is gliadin-subtilisin A digest (mixed gliadins, 250 ug/ml, incubated with subtilisin A, 57 ug/ml). The experiment in a line: R5 sandwich ELISA; gliadins 250 ug/ml with subtilisin A 57 ug/ml, t=0 sample.
For experiment [6], the target named is gliadin-Rmep digest (mixed gliadins, 250 ug/ml, incubated with Rmep, 57 ug/ml). The experiment in a line: R5 sandwich ELISA; gliadins 250 ug/ml with Rmep 57 ug/ml, t=0 sample.
For experiment [7], the target named is gliadin-subtilisin A digest (mixed gliadins, 250 ug/ml, incubated with subtilisin A, 57 ug/ml). The experiment in a line: R5 sandwich ELISA; gliadins 250 ug/ml with subtilisin A 57 ug/ml, 15 min.

Take “G12 monoclonal antibody (AgraQuant ELISA Gluten G12, Romer labs)”: the results for the degradation of G12 epitopes (ELISA) in experiment [1] and in experiment [3] were 22% and 45%, respectively. Further, the values for the decrease in antibody binding in experiment [2] and in experiment [4] were 65% and 85%, respectively.

Take “R5 monoclonal antibody (… Gliadin, R-Biopharm)”: the elimination of R5 epitopes (ELISA) in experiment [5] was determined as 90%; in experiment [7], 100%. Further, the reduction in antibody binding compared to the control in experiment [6] was 46%.
